# PMC12175530
# Key:
# [1] = molecular target: T1, EsrB-His6 (Edwardsiella piscicida) (UniProt A0AAU8P338); test: EMSA; settings: 20 mM Tris-HCl pH 7.5, 50 mM MgCl2, 5% glycerol, 20 uL, 2 h at 25 C
# T1 sequence: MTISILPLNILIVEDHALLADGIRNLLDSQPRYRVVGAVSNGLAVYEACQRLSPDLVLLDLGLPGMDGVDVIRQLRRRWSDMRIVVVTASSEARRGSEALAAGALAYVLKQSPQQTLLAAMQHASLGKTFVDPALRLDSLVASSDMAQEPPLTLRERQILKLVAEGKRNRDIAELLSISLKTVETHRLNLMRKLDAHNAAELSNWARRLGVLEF
# [2] = molecular target: T2, EseE-His6 (Edwardsiella piscicida) (UniProt A0AAU8P1U3); test: EMSA; settings: 20 mM Tris-HCl pH 7.5, 50 mM MgCl2, 5% glycerol, 20 uL, 2 h at 25 C
# T2 sequence: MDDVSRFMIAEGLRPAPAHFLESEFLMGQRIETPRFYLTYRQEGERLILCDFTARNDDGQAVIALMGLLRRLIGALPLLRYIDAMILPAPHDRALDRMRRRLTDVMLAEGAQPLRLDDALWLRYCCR
sequence,measurement,setting,value
GCCCGAACACCCGAGAAAAACCAACGTAACTTCAGGTAATTACCCGATATCTTTCGCGCGGGTTCAGCACCCAGAATGGGCCGGGGAAAAAGAGTTCGTCTCCCGATAACCAAACAGCAAACGTTATGCAGCTTCTCGAAAGTTCGCCCGCTAACGGCGTTCTAGCATCACCTCATCGGTAGTCAATAGGAGGTTTCACT (double strand) [escC -200 to -1],binding,[1],binds
same,binding,[2],binds
